{"source": "patent US6716813B2", "about": "“Use of antimicrobial proteins and peptides for the treatment of otitis media and paranasal sinusitis” (priority 2000, dated 2004)", "key": {"[1]": {"tested_on": "M. catarrhalis strain 035E", "assay_type": "cell-based, Moraxella catarrhalis", "details": "100 mM NaCl in gel", "description": "(§1) The bacteria used in the following examples were cultured as follows: Stocks of NTHi12 and M. catarrhalis […] (generous gift of Dr. Xin-Xing Gu) were maintained at -80° C. For experiments, the bacteria were plated on chocolate agar and incubated overnight at 37° C. in 5% CO2. A single colony was then picked and transferred to 10 ml of brain heart infusion (BHI, Becton Dickinson, Cockeysville, Md.), supplemented with hemin (10 μg/ml, Sigma, St. Louis, Mo.) and NAD (10 μg/ml, Sigma, St. Louis, Mo.), and allowed to grow overnight. In the morning, 1/10 volume of the overnight culture was transferred to fresh medium and incubated for 3-hours. The subculture was then washed twice with 10 mM sodium phosphate and the O.D. at 620 nm was determined. For the S. pneumoniae serotypes 3 and 6B (generous gift of Dr. Xin-Xing Gu), a 50 μl aliquot of the -80° C. stock was thawed on ice, added to 10 ml of Todd-Hewitt broth (THB, Becton Dickinson, Cockeysville, Md.) and cultured overnight. […] The subculture was then washed twice with 10 mM sodium phosphate and the O.D. at 620 nm was determined. […] The diameter of the zones of inhibition produced by each of the antimicrobial molecules against the OM pathogens (NTHi, M. catarrhalis and S. pneumoniae) was then measured in three separate experiments and the average and standard deviation were calculated. […]"}, "[2]": {"tested_on": "S. pneumoniae serotype 6B", "assay_type": "cell-based, Streptococcus pneumoniae", "description": "(§2) The bacteria used in the following examples were cultured as follows: Stocks of NTHi12 and M. catarrhalis […] (generous gift of Dr. Xin-Xing Gu) were maintained at -80° C. For experiments, the bacteria were plated on chocolate agar and incubated overnight at 37° C. in 5% CO2. A single colony was then picked and transferred to 10 ml of brain heart infusion (BHI, Becton Dickinson, Cockeysville, Md.), supplemented with hemin (10 μg/ml, Sigma, St. Louis, Mo.) and NAD (10 μg/ml, Sigma, St. Louis, Mo.), and allowed to grow overnight. In the morning, 1/10 volume of the overnight culture was transferred to fresh medium and incubated for 3-hours. The subculture was then washed twice with 10 mM sodium phosphate and the O.D. at 620 nm was determined. For the S. pneumoniae serotypes 3 and 6B (generous gift of Dr. Xin-Xing Gu), a 50 μl aliquot of the -80° C. stock was thawed on ice, added to 10 ml of Todd-Hewitt broth (THB, Becton Dickinson, Cockeysville, Md.) and cultured overnight. One tenth of the volume of the overnight culture was then transferred to fresh medium and incubated for 3-hours. The subculture was then washed twice with 10 mM sodium phosphate and the O.D. at 620 nm was determined. The radial assay method of […] and coworkers was used, with minor modifications ([…] et al., 1991). The subcultured bacteria (4×10^6 CFU/10 ml underlay gel) were mixed with melted underlay gel at 42° C. (0.1×culture broth-BHI for NTHi and Moraxella and THB for S. pneumoniae-10 mM sodium phosphate, 0.8% low electroendosmosis (EEO)-type agarose) and poured into 8 cm×8 cm square petri plates. The gel was allowed to solidify in the petri plates and wells were punched out with a calibrated 200 μl micropipette tip, cut off at the 50 μl mark (approximately 3 mm). The antimicrobial peptides and proteins were dissolved in 0.01% acetic acid and 4 μl was added to each well. The plates were then incubated for 3 hours at 37° C. in the 5% CO2 incubator. They were next overlaid with the overlay gel (0.5×culture broth, 10 mM sodium phosphate, 0.8% low EEO-type agarose) and covered. The plates were then allowed to incubate overnight at 37° C. in a 5% CO2. The diameter of the zones of inhibition produced by each of the antimicrobial molecules against the OM pathogens (NTHi, M. catarrhalis and S. pneumoniae) was then measured in three separate experiments and the average and standard deviation were calculated. Physiologically, salt concentrations vary depending on the site. However, typically they can be as high as 150 mM. Thus, the salt sensitivity of the antimicrobial molecules was tested. NaCl was added to the gel in Example 2 to obtain a final concentration of 100 mM."}, "[3]": {"tested_on": "S. pneumoniae serotype 3", "assay_type": "cell-based, Streptococcus pneumoniae", "description": "as §2"}, "[4]": {"tested_on": "NTHi strain12", "assay_type": "cell-based, nontypeable Haemophilus influenzae", "details": "100 mM NaCl in gel", "description": "as §1"}}, "data": [{"molecule": "lactoferrin (protein, UniProt P02788 20-710, looked up) Lactotransferrin: GRRRSVQWCAVSQPEATKCFQWQRNMRKVRGPPVSCIKRDSPIQCIQAIAENRADAVTLDGGFIYEAGLAPYKLRPVAAEVYGTERQPRTHYYAVAVVKKGGSFQLNELQGLKSCHTGLRRTAGWNVPIGTLRPFLNWTGPPEPIEAAVARFFSASCVPGADKGQFPNLCRLCAGTGENKCAFSSQEPYFSYSGAFKCLRDGAGDVAFIRESTVFEDLSDEAERDEYELLCPDNTRKPVDKFKDCHLARVPSHAVVARSVNGKEDAIWNLLRQAQEKFGKDKSPKFQLFGSPSGQKDLLFKDSAIGFSRVPPRIDSGLYLGSGYFTAIQNLRKSEEEVAARRARVVWCAVGEQELRKCNQWSGLSEGSVTCSSASTTEDCIALVLKGEADAMSLDGGYVYTAGKCGLVPVLAENYKSQQSSDPDPNCVDRPVEGYLAVAVVRRSDTSLTWNSVKGKKSCHTAVDRTAGWNIPMGLLFNQTGSCKFDEYFSQSCAPGSDPRSNLCALCIGDEQGENKCVPNSNERYYGYTGAFRCLAENAGDVAFVKDVTVLQNTDGNNNEAWAKDLKLADFALLCLDGKRKPVTEARSCHLAMAPNHAVVSRMDKVERLKQVLLHQQAKFGRNGSDCPDKFCLFQSETKNLLFNDNTECLARLHGKTTYEKYLGPQYVAGITNLKKCSTSPLLEACEFLRK", "values": [{"measurement": "effect of salt on the growth inhibitory effect against M. catarrhalis", "setting": "[1]", "result": "completely blocked"}, {"measurement": "effect of salt on the growth inhibitory effect against S. pneumoniae serotype 6B", "setting": "[2]; 100 mM NaCl in gel", "result": "completely blocked"}, {"measurement": "effect on growth of S. pneumoniae serotype 6B", "setting": "[2]; 10 and 40 μg, equivalent to 2.5 and 10 mg/ml", "result": "enhancement of the growth"}, {"measurement": "effect on growth of S. pneumoniae serotype 3", "setting": "[3]; 10 μg, equivalent to 2.5 mg/ml", "result": "enhancement of the growth"}, {"measurement": "effect of salt on the growth inhibitory effect against S. pneumoniae serotype 3", "setting": "[3]; 100 mM NaCl in gel", "result": "completely blocked"}, {"measurement": "effect of salt on the growth inhibitory effect against NTHi", "setting": "[4]", "result": "completely blocked"}]}]}
